B1: REN2-ID33-EcoRI (structured_DNA)
DNA: ATTTGACGAATTCGTCGTATAGGAACTTCGAACGACTCGCCTCAATGCACATGTTTGGCTCCCGAGTCGTTCGAAGTTCCTATACGACGAATTCGTCAAAT
modifications: 5'-amine and 3'-amine
B2: REN2-PB-EcoRI (structured_DNA)
DNA: ATTTCCAGAATTCTGGGTATAGGAACTTCGAACGACTCGACTGTGAAGATCGCTTATCGAGTCGTTCGAAGTTCCTATACCCAGAATTCTGGAAAT
modifications: 5'-amine and 3'-amine

Tests used:
EcoRI [1] = target: T1, EcoRI (UniProt P00642 P00642:2-277); experiment: cleavage_in_vitro; assayed as pair with SEQ 2; cleavage-ligation-RCA readout; Mg acetate pH 7.9, 37 C; std error 6.6; settings: tags: Thermo Scientific; chain copies: 2; hairpin
Method: (§1) For detection of EcoRI activity, 50 pmol of each of the two substrates REN2-ID33-EcoRI (SEQ ID NO: 1) and REN2-PB-EcoRI (SEQ ID NO: 2) were incubated for 1 h at 37° C. either with or without 10 units of EcoRI. The reaction was done in a reaction buffer containing 500 mM Potassium Acetate; 200 mM Tris-acetate; 100 mM Magnesium Acetate; and 1 mg/ml BSA (pH 7.9). The reaction volume was 50 μL. After incubation, the restriction endonuclease was inactivated by heating to 94° C. for 10 minutes. ATP was added to a final concentration of 10 mM and 1 unit of T4 ligase (Invitrogen) was added. The reaction mixture was then incubated over night at room temperature.
(§2) The two substrate molecules carrying the EcoRI cleavage sites (see materials and methods) were incubated with or without purified enzyme and subjected to the protocol as described in materials and methods (see also FIG. 1A). After counting the signals, the fold increase over background (no enzyme) was calculated.

EcoRI [2] = target: T1, EcoRI; experiment: cleavage_in_vitro; assayed as pair with SEQ 1; cleavage-ligation-RCA readout; Mg acetate pH 7.9, 37 C; std error 6.6; settings: tags: Thermo Scientific; chain copies: 2; hairpin
Method: as §1, §2

T1 sequence (P00642 2-277, one chain of several): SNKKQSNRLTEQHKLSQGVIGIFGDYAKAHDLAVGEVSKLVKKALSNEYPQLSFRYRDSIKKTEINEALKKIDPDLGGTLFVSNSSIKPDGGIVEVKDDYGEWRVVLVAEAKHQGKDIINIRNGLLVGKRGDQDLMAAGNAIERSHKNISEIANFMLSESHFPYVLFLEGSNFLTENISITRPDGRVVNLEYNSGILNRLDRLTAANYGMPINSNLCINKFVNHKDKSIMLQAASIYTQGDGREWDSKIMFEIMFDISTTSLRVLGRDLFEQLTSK

| Binder | activity (EcoRI [1]) | activity (EcoRI [2]) |
| --- | --- | --- |
| B1 | 110 fold over no enzyme |  |
| B2 |  | 110 fold over no enzyme |
